From patent US20210101992A1 (KIRA BIOTECH, published 2021)

T1: CD83-His (ectodomain of human CD83 with 6x Histidine tag) (human, UniProt Q01151 20-144)
T1 construct: extracellular domain; Expressed in mammalian cells; also called hCD83-His; recombinant CD83-His; not shown: 6x Histidine tag
T1 sequence (looked up): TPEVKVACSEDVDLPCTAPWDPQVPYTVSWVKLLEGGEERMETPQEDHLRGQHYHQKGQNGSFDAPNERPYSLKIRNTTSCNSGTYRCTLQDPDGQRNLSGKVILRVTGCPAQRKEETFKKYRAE

T2: CD83-Fc (human CD83 ectodomain, Fc tagged) (human, UniProt Q01151 20-144)
T2 construct: extracellular domain; The construct is not described beyond 'hCD83 ectodomain (Fc and His tagged)'; also called hCD83-Fc; not shown: Fc tag
T2 sequence (looked up): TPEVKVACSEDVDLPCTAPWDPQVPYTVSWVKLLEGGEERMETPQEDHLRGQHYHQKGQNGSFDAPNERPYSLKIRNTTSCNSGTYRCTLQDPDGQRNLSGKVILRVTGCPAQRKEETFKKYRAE

B1: hFab 1F7 (Fab, V domains shown)
VH: EVQLVQSGGAVVQPGRSLRLSCAASGFTFSTYGMHWVRQAPGKGLEWVAAVSYDGSNKYYADFVKGRFTISRDNPKNTLYLQMNSLRADDTAVYYCARRGGLDIWGQGTTVTVSS
VL: LTQPPPASGTPGQRVTISCSGSSSNIGSNTVNWYQQLPGTAPKLLIYGNDQRPSGVPDRFSASKSGTSASLAISGLQSEDEAHYYCAAWDGSLNGGVIFGGGTKVTLG
notes: Human Fab from a phage display library; The heavy chain carries a 6x His tag and a myc tag, and the light chain was detected as kappa; also called 1F7 hFab; 1F7 Fab
B2: hFab4.1 (Fab, V domains shown)
VH: EVQLVQSGGAVVQPGRSLRLSCAASGFTFSTYGMHWVRQAPGKGLEWVAAVSYDGSNKYYADFVKGRFTISRDNPKNTLYLQMNSLRADDTAVYYCARRGGLDIWGQGTTVTVSS
VL: VTQPPSASGTPGQRVTISCSGSSSNIGTNPVNWYQQLPGTAPKLLIYTTDQRPSGVPDRFSGSKSGTSASLAISGLQSEDEADYYCAAWDDSLSGLYVFGTGTKVTVLG
notes: Light chain shuffled variant of 1F7
B3: hFab4.12 (Fab, V domains shown)
VH: EVQLVQSGGAVVQPGRSLRLSCAASGFTFSTYGMHWVRQAPGKGLEWVAAVSYDGSNKYYADFVKGRFTISRDNPKNTLYLQMNSLRADDTAVYYCARRGGLDIWGQGTTVTVSS
VL: MTQAPVVSVALEQTVRITCQGDSLAIYYDFWYQHKPGQAPVLVIYGKNNRPSGIPHRFSGSSSNTDSLTITGAQAEDEADYYCNSRDSSGNHWVFGGGTNLTVLG
notes: as for B2
B4: hFab4.10 (Fab, V domains shown)
VH: EVQLVQSGGAVVQPGRSLRLSCAASGFTFSTYGMHWVRQAPGKGLEWVAAVSYDGSNKYYADFVKGRFTISRDNPKNTLYLQMNSLRADDTAVYYCARRGGLDIWGQGTTVTVSS
VL: LTQPPSASGTPGQGVTISCRGSTSNIGNNVVNWYQHVPGSAPKLLIWSNIQRPSGIPDRFSGSKSGTSASLAISGLQSEDEAVYYCAVWDDGLAGWVFGGGTTVTVLS
notes: as for B2
B5: hFab4.9 (Fab, V domains shown)
VH: EVQLVQSGGAVVQPGRSLRLSCAASGFTFSTYGMHWVRQAPGKGLEWVAAVSYDGSNKYYADFVKGRFTISRDNPKNTLYLQMNSLRADDTAVYYCARRGGLDIWGQGTTVTVSS
VL: MTQSPSSLSASVGHPVTITCRASQSLISYLNWYHQKPGKAPKLLIYAASILQSGVPSRFSGSGSGTDFTLTISSLQPENFASYYCQHTDSFPRTFGHGTKVEIKR
notes: as for B2
B6: hFab4.8 (Fab, V domains shown)
VH: EVQLVQSGGAVVQPGRSLRLSCAASGFTFSTYGMHWVRQAPGKGLEWVAAVSYDGSNKYYADFVKGRFTISRDNPKNTLYLQMNSLRADDTAVYYCARRGGLDIWGQGTTVTVSS
VL: MTQSPSSLSASVGDRVTITCQASQDISNYLNWYQQKPGKAPKLLIYDASNLETGVPSRFSGSGSGTDFTFTISSLQPDDFATYYCQQTYSWPRTFGQGTKLEIKR
notes: Light chain shuffled variant of 1F7, expressed as hFab in the E. coli periplasm
B7: hFab4.5 (Fab, V domains shown)
VH: EVQLVQSGGAVVQPGRSLRLSCAASGFTFSTYGMHWVRQAPGKGLEWVAAVSYDGSNKYYADFVKGRFTISRDNPKNTLYLQMNSLRADDTAVYYCARRGGLDIWGQGTTVTVSS
VL: LTQSPLSLPVTLGQPASISCKSSQSLVDSDGNTYLNWFQQRPGQSPRRLIYKVSNRDSGVPDRFSGSGSGTDFTLKISRVEAEDVGVYYCMQGTHWPRTFGQGTKVEIKR
notes: as for B6
B8: hFab4.2 (Fab, V domains shown)
VH: EVQLVQSGGAVVQPGRSLRLSCAASGFTFSTYGMHWVRQAPGKGLEWVAAVSYDGSNKYYADFVKGRFTISRDNPKNTLYLQMNSLRADDTAVYYCARRGGLDIWGQGTTVTVSS
VL: MTHTPLSLSVTPGQPASISCKSSQSLLHSDGKTYLYWYLQRPGQSPQPLIYEVSNRFSGVPDRFSGSGSGTDFTLKISRVEAEDVGVYYCMQSLQLWTFGQGTKVEIKR
notes: as for B2
B9: hFab4.7 (Fab, V domains shown)
VH: EVQLVQSGGAVVQPGRSLRLSCAASGFTFSTYGMHWVRQAPGKGLEWVAAVSYDGSNKYYADFVKGRFTISRDNPKNTLYLQMNSLRADDTAVYYCARRGGLDIWGQGTTVTVSS
VL: MTQSPLSLPVTLGQPASISCRSSQSLVHSDGNMYLNWFQQRPGQSPRRLIYKVSNRDSGVPDRFSGSGSGTDFTLKISRVEAEDVGVYYCMQATQPTWTFGQGTKLEIKR
notes: as for B2
B10: hFab4.3 (Fab, V domains shown)
VH: EVQLVQSGGAVVQPGRSLRLSCAASGFTFSTYGMHWVRQAPGKGLEWVAAVSYDGSNKYYADFVKGRFTISRDNPKNTLYLQMNSLRADDTAVYYCARRGGLDIWGQGTTVTVSS
VL: MTQSPLSLPVTLGQPASISCRSSQSLIHSDGNTYLDWFQQRPGQSPRRLIYKVSNRDSGVPDRFSGSGSGTDFTLRISRVEAEDIGVYYCMQATHWPRTFGQGTKVEIKR
notes: as for B2
B11: hFab4.18 (Fab, V domains shown)
VH: EVQLVQSGGAVVQPGRSLRLSCAASGFTFSTYGMHWVRQAPGKGLEWVAAVSYDGSNKYYADFVKGRFTISRDNPKNTLYLQMNSLRADDTAVYYCARRGGLDIWGQGTTVTVSS
VL: LTQSPLSLPVTLGQPASISCKSNQSLVHSDGNTYLNWFQQRPGQSPRRLIYKVSNRDSGVPDRFSGSGSGTDFTLKINRVEAEDVGVYYCMQGTQWPRTFGQGTKLDIKR
notes: as for B2
B12: hFab4.4 (Fab, V domains shown)
VH: EVQLVQSGGAVVQPGRSLRLSCAASGFTFSTYGMHWVRQAPGKGLEWVAAVSYDGSNKYYADFVKGRFTISRDNPKNTLYLQMNSLRADDTAVYYCARRGGLDIWGQGTTVTVSS
VL: MTQSPLSLPVTLGQPASISCRSSQSLVDSAGNTFLHWFHQRPGQSPRRLIYKVSNRDSGVPDRFSGSGSGTDFTLKISRVEAEDVGVYYCMQGTHWPRTFGQGTKVEIKR
notes: as for B6

Experiments:
BSA = BSA (Bos taurus, UniProt P02769); experiment: ELISA on coated antigens, absorbance at 450 nm
[1] = target: T1, CD83-His (ectodomain of human CD83 with …); experiment: ELISA on coated CD83-His, detection with anti-kappa-HRP antibody, absorbance at 450 nm
Description: The reactivity of purified hFab 1F7 to CD83 was analysed by ELISA.

[2] = target: T1, CD83-His (ectodomain of human CD83 with …); experiment: relative binding of light chain shuffled clones against 1F7; CD83 construct not given
[3] = target: T2, CD83-Fc (human CD83 ectodomain, Fc …); experiment: binding of periplasmic hFab's to CD83-Fc, normalised to binding to 9E10

BSA, sequence (P02769 25-607 limits assumed): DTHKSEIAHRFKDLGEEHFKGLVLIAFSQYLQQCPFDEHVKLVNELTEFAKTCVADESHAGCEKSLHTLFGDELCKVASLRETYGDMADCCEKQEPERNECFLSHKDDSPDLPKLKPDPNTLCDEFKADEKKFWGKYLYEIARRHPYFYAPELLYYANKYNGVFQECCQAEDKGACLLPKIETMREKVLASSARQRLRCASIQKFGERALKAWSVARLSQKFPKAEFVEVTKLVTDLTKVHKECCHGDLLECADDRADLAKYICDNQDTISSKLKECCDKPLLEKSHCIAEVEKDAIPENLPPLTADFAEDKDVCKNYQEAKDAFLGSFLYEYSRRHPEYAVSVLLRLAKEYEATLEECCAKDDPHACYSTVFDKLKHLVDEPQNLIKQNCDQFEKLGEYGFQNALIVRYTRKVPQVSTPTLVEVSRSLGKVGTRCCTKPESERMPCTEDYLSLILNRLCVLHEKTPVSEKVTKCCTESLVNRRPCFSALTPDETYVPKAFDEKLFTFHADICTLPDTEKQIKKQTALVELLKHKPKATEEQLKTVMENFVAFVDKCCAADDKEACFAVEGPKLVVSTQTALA

Binder	binding result [2]	also measured
B1		binding result (BSA): no binding; EC50 (read off the curve) [1]: ~2 mg/L
B2	binds	
B3	binds	
B4	binds	
B5	binds	
B6	binds	binding result [3]: binds
B7	binds	binding result [3]: binds
B8	binds	
B9	binds	
B10	binds	
B11	binds	
B12	binds	binding result [3]: binds
